Laboratory results from paper PMC10931773.

Target: T1, C-reactive protein (recombinant human CRP) (human) (UniProt P02741)
T1 sequence: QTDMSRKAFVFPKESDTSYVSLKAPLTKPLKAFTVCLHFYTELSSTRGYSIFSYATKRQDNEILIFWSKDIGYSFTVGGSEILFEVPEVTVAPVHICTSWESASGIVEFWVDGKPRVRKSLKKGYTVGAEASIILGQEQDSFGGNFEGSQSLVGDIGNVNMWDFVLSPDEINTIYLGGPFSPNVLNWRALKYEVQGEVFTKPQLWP
Assay: SPR; Biacore T200; CRP immobilised on a CM5 chip by amine coupling (1074 RU); antibodies 0.50-75 nM injected at 30 µL/min, association and dissociation 120 s; 1:1 Langmuir global fit

B1: anti-CRP single-chain variable fragment (scFv) (scFv, V domains shown)
VH: QVQLQQSGAELVKPGASVKLSCTASGFNIKDYYMHWVKQRTEQGLEWIGRIDPEDGETKYAPKFQGKATITADTSSNTAYLQLSSLTSEDTAVYYCARGYYGSEAMDYWGQGTSLTVSS
VL: SIVMTQSHKFMSTSVGDRVSITCKASQDVNTAVAWYQQKPGQSPKLLIYWASTRHTGVPDRFTGSGFGTDYTLTISSVQAEDLALYYCQQHYSTPWTFGGGTKLEIK
- Kd: 4.8 nM
- koff: 0.0016 s⁻¹
- kon: 350000 M⁻¹ s⁻¹

B2: anti-CRP scFv-SpyTag (scFv, V domains shown)
VH: QVQLQQSGAELVKPGASVKLSCTASGFNIKDYYMHWVKQRTEQGLEWIGRIDPEDGETKYAPKFQGKATITADTSSNTAYLQLSSLTSEDTAVYYCARGYYGSEAMDYWGQGTSLTVSS
VL: SIVMTQSHKFMSTSVGDRVSITCKASQDVNTAVAWYQQKPGQSPKLLIYWASTRHTGVPDRFTGSGFGTDYTLTISSVQAEDLALYYCQQHYSTPWTFGGGTKLEIK
- Kd: 5 nM
- koff: 0.0017 s⁻¹
- kon: 340000 M⁻¹ s⁻¹

B3: monovalent antibody-enzyme complex (anti-CRP scFv-ST joined to GDH-SC) (complex)
VH: QVQLQQSGAELVKPGASVKLSCTASGFNIKDYYMHWVKQRTEQGLEWIGRIDPEDGETKYAPKFQGKATITADTSSNTAYLQLSSLTSEDTAVYYCARGYYGSEAMDYWGQGTSLTVSS
VL: SIVMTQSHKFMSTSVGDRVSITCKASQDVNTAVAWYQQKPGQSPKLLIYWASTRHTGVPDRFTGSGFGTDYTLTISSVQAEDLALYYCQQHYSTPWTFGGGTKLEIK
- Kd: 28.7 nM
- koff: 0.0019 s⁻¹
- kon: 67000 M⁻¹ s⁻¹
